Source: a protein production outcome set (Wang et al. 2014)

Assay: label from the status in PepcDB records
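Note: failed if final PepcDB status was selected cloned or expressed and not failed if soluble or beyond.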

Row | Sequence | protein production
1 | MYEAHFGLKQLPFTLTPNTSLFHGLSPHYEAIHTVLSAISMGEGIIKVTGEVGTGKTLVCRMLINELPSNVELLYLPNPVMNGHELRQALAKELWLDQSGDDIALIDRIHEKIIDLHAEGKLVVVFIDEAQALSDEALETLRLFGNLETDYKKLLQIVLFGQPELDERLQQHNLRQLRQRITFSALLRALNMNETVAYIRYRIAESGCENNPFSLVQMKAIWKATNGIPRLINQVCHKSLLIAFSEQVNNVPSKAVFNAIIDTADTVKPKHYFPTFWGWRVSLEHHHHHH | not failed
2 | MYEEWKIVKREAPILGNDQLIENIWKMKREDSPYDIISLHKVNLIGGGNDAVLILPGTWSSGEQLVTISWNGVHYTIPDYRKSIVLYLARNGFNVYTIDYRTHYVPPFLKDRQLSFTANWGWSTWISDIKEVVSFIKRDSGQERIYLAGESFGGIAALNYSSLYWKNDIKGLILLDGGPTKHGIRPKFYTPEVNSIEEMEAKGIYVIPSRGGPNNPIWSYALANPDMPSPDPKYKSISDFLMDSLYVTGSANPYDYPYSKKEDMFPILASFDPYWPYRLSLERDLKFDYEGILVPTIAFVSERFGIQIFDSKILPSNSEIILLKGYGHLDVYTGENSEKDVNSVVLKWLSQQR | not failed
3 | MYESANVSDDADRTAFRRAEKKYKLYYEQDSKFSRKKKLPKPIDLSELLDFNLISQNFNNDGVLPDGIRVSKVDSSPVFCIDNRPGFYFIPDALSLKEQCKWIKESLTSFPQPPNRTNHNAIYGPIDDLFDSAKENKVLVQDDLTNNKWKFYEEVDIEKATRSSCKSVSASVLLRKLRWSTLGLQFDWSKRNYDVSLPHNNIPDALCQLAKTHAAIAMPDGEEFRPEGAIVNYFGIGDTLGGHLDDMEADWSKPIVSMSLGCKAIFLLGGKSKDDPPHAMYLRSGDVVLMAGEARECFHGNLLHFQLDGIPRIFTGEENADIGALESELSHESGHFFAEYIKTSRININIRQVF | failed
4 | MYEVELKGYANDEIFEKVRETFEFMRKEIHEDIYYQHPCRDFSKTDEALRIRIKRFNGHNEVFLTYKGPKIDEKSKTRLEIEVEIQEDVDKYFELLDRLGFKEVLKVVKTREKYYVEKGVTITLDEVEGLGKFIEIETLVKEKDEIPEAVEKLEKILRELGVEKFERRSYLELLLEKRTELNI | not failed
5 | MYFFVPTANSKINQMIFYLSSMNLDMIKEYILSFGIWAPITSFLLMVLQSVIAPIPAFLITLSNAAIFGWVKGAILSWSSAMAGAALCFYIARGLGRDAVEKLTSKFALKDIDGFFEKYGKHTILIARLLPFISFDLVSYAAGLTSMNFWSFFIATGIGQLPATIVYSYVGGMLTGGAQLLMSGLLILFALSIAIYVGKKVWNEKRGKNDK | failed
6 | MYFLVTTLGVGFYLMKRMEKSEEDYLVAKRGLGAVPVGVTLALTVLGTPHILGVMESAYDIGLPAVWFSFAHAIMLAIVCLFTGRWARKLKVESVPEFLDVIFSNYWLRLMVGAVIAGAIFGICTLETQGLGVFVSILTGTSIEVGIVIGALIGILYVVLSGMKEVAWLNVLNAVILYIGIIAATFVLGSGLQNGWEGVNEFYISNDLAGKLNIFGSWEVFVGFALVNVLATVFFQGISQQGLHAALAAKSPDVLRKAMLIAVPVNGSFAVFAAVMGMAARATPEFAELGAKTATPAMIVSVLPTWASALLLATCLVAVLSSYAITLLAPTTIFVNDIYKAVLKPNASHEELLRLSRILTVLLAVAALIPAVSLPPILAAMMWLFSWLVPVFWFVIFGLFWKRSAPAAIITCLLVWVTINAWTMTPLPEVLGAPGWLHQVYLALIVTLVIGSLLNAVLPGKPGLFREKALAVRG | failed
7 | MYGISVFLGEEITNDTIIYIKKMKALGFDGIFTSLHIPEDDTSLYRQRLTDLGAIAKAEKMKIMVDISGEALKRAGFSFDELEPLIELGVTGLRMDYGITIEQMAHASHKIDIGLNASTITLEEVAELKAHQADFSRLEAWHNYYPRPETGIGTTFFNEKNRWLKELGLQVFTFVPGDGQTRGPIFAGLPTLEKHRGQNPFAAAVGLMADPYVDAVYIGDPTISERTMAQFGYYHQTNQFLLEVAPSESRYLKRILGTHTNRLDAARDVLRSELSRTSEMFRKDEIATIESEQTEARPVGTVTIDNEKYGRYMGEIQVTLVDLPKDEKVNTITRIIEKDQTILPLIKAGNQFTLVTEGTIENEFRKLNN | not failed
8 | MYGRKGYQLIKDFATGEKGQLKPFNSKLFDETIEECDQNHHLIQSLIRKMQQEGLDVQNNRNADHYGALIHHLALIRNKRCLMAYVYNRAEIVRDLAWRVGLELLDLPSEIQEKLTTLEKEYFKNHSVALKSYMGKVGIELNVDMVPPKDPYIKVRILDDIDEGIVLSDKTTNFARHSMHFLKRTDAEPYIARGQMEELTG | failed
9 | MYIEMAQQQQQSGSDNSMAPVWIVILLFITAYFVWALAHQYIVSFVFTINIWQARLVNLFLNNQLLANQIYLMQTLDPNTVNWDQMVTVMRAVGDYMRYPVICILVVLAFVLYNSNVTLKYRKTYDMKSLRAQEQFNWPAIMPIVKEDLVSQDVNKGPWAMALTPMEFARKYNLLRKDDALLDNPVPGEEMTAGIRRGDAKRVFTMQLGPYWDGFERCSPQAYALSAVFMARMNRDRDAANNILKVLDKTFVDGKPDFSVARPVMKKYQNSELVQEVVAKHAYVLTVIASLLEAAREDGVVPSSEFLWLKPVDRRLWYMLNCVGRQTPYSEVAGPFAHWKAEKEMGRRSLVPMIDEAIRALEIAVKEVRLTPRQMEELEP | failed
10 | MYIQPLNPTGNVGLTILASLTPIIALLILLAGLRITAWLATLIGSIITILVATFVWGTPIIQVSYAWLIGALVGTWAISWIVFWGLTIYNTLVLTGKFDAFRDWIVRNSTNDARVQAIVLAWSLGALFEGLVGFGYPWAFIAPLLIYLGFDDLKALQVSALANNAPVSFGALGTPIIILASVTGLPLLFISSSVAKVVAILALLPPWILLYLVDKWRGIREAWPIAILGSLSYILGQYPVASFIGPYLPDITGSLISFVILLLFLRVWRPKRVLSLRSVQPNGGESKKYSTKDVIEALSAFIVLIIVVTLWTGPWSPLTKFSLVTLSQTAYSSLLHKNVGVSFAFNPFVAGTSILVSWIIISLVLRASPRIMGEAIKRSFHQYWGGILTGIFVVGLAYVFNFSGMAYSLAWKTSDLGIAFIIVSPLFGWIGCALSGSNTSTNALFGAFQVTTARLTGLPVGLPPALNSVGAELAKPVAPQTASAGVSTTKYVRKEGIVIRKNLPWAIGILIYLILIGVLYAFLAPSLFVH | failed
11 | MYIRGVGDIIYFLQQLHPLEQALLAGIFTWGMTALGAASVFFTREVSRKVLDSMLGFTAGVMIAASYWSLLAPAIEMSEGRSIPAWLPAVLGFLLGGLFLRGIDKILPHLQFGSATEAAEGLKTSWRRNTLLVLAVTLHNIPEGLAVGVAFGAAASGYMYSLPAAIALTTGIGIQNFPEGLVVSVPLRREGMSCFKSFNYGQASAIVEPIASVIGVAAVMLVRPILPYALAFAAGAMIFVVVEEIIPESQHGGNAPLATIGTMIGFSVMMVLDVAFG | failed
12 | MYKGYKIGVAVPAYNEEKLIGETLKGIPPFVDRIYVVDDASKDNTSKVVEEMMRHDKRIVLIRHAKNKGVGGAIVSGWKKGLEEGMDILAVMAGDNQMDPRDLPALLDPIVEGKVDFTKGNRFLLSYDLKMSYWRRFGTFLLTILTKIASGYWHINDPQNGYVAIKADALRKIDLDKLDSGYFFENDLLIKASVANLRVVNVPVKIRYKIGEKSKIKYSKFIARTSWLLLRSFLWRIWVEYVKRRKFLGFLYLLGFTLIVTSFLIFLIYPTRLEIPLIVLLAGAAIFLGSCIKEKNLKQYLK | failed
13 | MYKIDEVTKQVGLTKRTLRYYEEIGLIHPPERSEGNIRLYTDEDIARIKRIVEAKEVLGITLQEMQHFLSLKERMEQRRNSENPRDREVIQEIKEMLEKQVQTLDEKMEQMQRVKGELEDSLHRAVTFLENTKGE | failed
14 | MYKILIVEDDPNISSLLQSHIQKYGYEAVVAENFDDIMESFNAVKPHLVLLDVNLPKFDGFYWCRQIRHESTCPIIFISARAGEMEQIMAIESGADDYITKPFHYDVVMAKIKGQLRRIYGDYAPNISERIVEVEGLKLFPERPEIHFGSEQVLLTKKEAILAEMLLSKFPRTASREDLLAALWDDESFVEENTLNVNITRLRKKFNELGIENAIETVRGLGYRFNATWSE | failed
15 | MYKLISPHLSGHAMWKEALEEFGSGPIHGSGYFENYLPIDYSEAGFHHYLKERTDAADPSVPPPEGFVHCSYFWIVDDDDVLVGFLALRHELNQHLLEVAGHIGYGVRPSARRKGAATAALKLGVHEAQALGIDKVLLCVAGDNEASRNVIEKCGGVYESTIRGMRRYWIATDS | failed
16 | MYLAEALAQRVEAQRRYSELNQLLLDVAKVQEGDQPAENPHEILTELEELTTRINDLVRRINRTNSVTEFSEGMTLADALSVRDALLKKRTLYSDLADQLTSRQDRYSRSEIKYVATMDAREIRKKADLAAKEYRQLDVDIQRLNWQTELQ | failed
17 | MYLISELAVKAGLSRTTLLYYEKLGLIRGQRLDNGYRYYNESDLQQLFLIQQLQSAGLSLKECEECLQAKLDRTLLERRLSQLDDEIEKKVRARELLLALLGERPQRELHHSLSKHAPNAYLSWLNTQGYSEKEALRLKWLSKDMNEHDIYMQDFMTVFASLQHWGPGSEQDSLKAISLMSMQNMQHILDIGCETGLSTLLLAENSSAHITAVDNEPIAIEQLEKQRQHSPWKEQISPVLGSMTALPFAAKSFDAIWAEGCVYIMGMENALKQWKPFLADNAILMVSDLVWLTENPKPEAQEFWQSEYPDIQSIPSRIKLFKKLGYEVMEHFSLGIDAWQNYWLPLQNRVQELKLRLTNSQALSDIEKEIAIYERSAAKDFTYQYFVLKLNH | failed
18 | MYLKHFGLGQAPFSLTPNTGFFFGLSPHVEALQVLQTALQTGEGFIKVTGEVGTGKTLICRKLINELPQGFHCAYLPNPYLTPAELRWAVANELGLKYTSEIDQQQLTGLIQQQLLALSTHGHAIVLVLDEAQALPDESLEALRLFTNLETESRKLLQVVLFGQPELDERLKRQAFRQLRQRITFSYNLRPLTWDETDAYIRYRLAVAGHAGQALFSPKITRKIAQASRGIPRLINILAHKALMLSFGEGATQVRMSHLKGAICDTEDASPTRVQKWSTYFAIAFMVFAVAMLALLLSGTNFLQWWGDGA | failed
19 | MYLRPDEVARVLEKVGFTVDVVTQKAYGYRRGENYVYVNREARMGRTALVIHPTLKERSSTLAEPASDIKTCDHYQQFPLYLAGERHEHYGIPHGFSSRVALERYLNGLFGEAS | failed
20 | MYLRSYMGWRFWALFFCLCSPSSVSAERLASSYLKVTEEAASSRQLIRYCVDPDWLPYEAIREGEHVGISSDYIRYIESHSNFKFSLVPTTSWSETLNFLQTGRCELTPMLNKTATREQFLHFSHVYFHSPNVLVSLKEQPFLQGFENIGSRTLAVPKGYRLAEYIQHYYPKVKIIEVGSEPAGLEAVLDKRADLFVGSMFSVNAYIQQTGFNHLKIAGWGGPEDELRMGVSLGHEALLPILNQVLDDVDELERIRIYQKWNNITVIDETNYLLIYQVIVGTLLVVFLLATRTFFISRYNRRLTDKNEQLEALRLRLEHTNAELEFLSTHDPLTKLYNRHYFNRQFVHEHRSEISSEGAICLVMLDIDFFKEINDTLGHAVGDNILMELSGVLQHCVRETDVVARWGGEEFVILCHQTSIDLVKTLCQRIAAAIKDYRFSGNVQLTCSFGIAKLVNNEPMQSCFERADKALYQAKALGRNQICVDEFNT | failed
21 | MYNPTAIAATNYQILPRRGKHKIFIGMAPGVGKTYRMLEEGHALKQDGVDVAIGLLEAHGREETTLKAEGLELIPRKQVYCRNVLLQEMDTEEILRRSPQLVLIDELAHTNIPGSKQEKRYQDVEKILNAGIDVYSTVNIQHLESLNDLVYRISGVVVRERIPDRIIDDADEIVVVDVTPETLQERLQEGKIYAPEKIDQALQNFFRRSNLIALRELALREIADNIEEESISETKNLHYNIRERVLVCISTYPNSIQLLRRGARIANHMNGQLFVLFVAPAGKFLSKSEALHIETCKRLCQEFTGEFLRIESPNIVTTIVKIATQERITQIVLGETRRSRFQLLFKGSIVQQLMRALPQVDIHIIANN | failed
